Assay results reported in patent US20140024806A1.
Square brackets hold non-standard residues; d marks the D form. Ends that are not written are not given here. Hyp = O=C(O)[C@@H]1C[C@@H](O)CN1

B1: purified (SO)10 glycomodule (peptide)
peptide: S[Hyp]S[Hyp]S[Hyp]S[Hyp]S[Hyp]S[Hyp]S[Hyp]S[Hyp]S[Hyp]S[Hyp]
modifications: also: O-glycosylated, sites not given here

How the values were obtained:
[1] = molecular target: growth hormone receptor (GHR) on NIH 3T3-L1 cells (Mus musculus (Mouse)) (UniProt P16882); test: radioreceptor competition assay, [125I]-hGH on GHR-expressing NIH 3T3-L1 cell monolayers
Chain of UniProt P16882 (P16882 25-650 limits assumed, form in doubt): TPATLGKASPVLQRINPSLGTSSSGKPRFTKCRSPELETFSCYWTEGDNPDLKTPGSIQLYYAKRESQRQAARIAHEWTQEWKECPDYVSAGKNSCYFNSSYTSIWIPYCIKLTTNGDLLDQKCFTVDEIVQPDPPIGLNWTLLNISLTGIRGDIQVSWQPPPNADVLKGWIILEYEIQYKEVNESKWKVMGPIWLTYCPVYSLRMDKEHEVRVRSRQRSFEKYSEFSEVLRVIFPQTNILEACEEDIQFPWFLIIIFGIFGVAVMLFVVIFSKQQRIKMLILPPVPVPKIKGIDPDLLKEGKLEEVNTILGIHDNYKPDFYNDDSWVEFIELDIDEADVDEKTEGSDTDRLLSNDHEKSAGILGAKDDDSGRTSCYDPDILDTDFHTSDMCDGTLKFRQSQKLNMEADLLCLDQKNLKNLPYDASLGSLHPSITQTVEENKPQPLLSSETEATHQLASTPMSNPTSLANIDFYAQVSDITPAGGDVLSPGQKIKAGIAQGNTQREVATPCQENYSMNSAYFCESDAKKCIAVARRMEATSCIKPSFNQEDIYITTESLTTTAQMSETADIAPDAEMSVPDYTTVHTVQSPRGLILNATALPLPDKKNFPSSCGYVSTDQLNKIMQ

[2] = molecular target: anti-hGH-(SO)10 antibodies (1:10,000 serum dilution); test: competition ELISA, hGH-(SO)10-coated plates, serum 1:10,000, 100 ug/ml (SO)10 as competitive inhibitor

Molecule	EC50 [1] [nM]	percent inhibition [2] [%]
hGH-(SO)10-EGFP fusion glycoprotein (human growth hormone, (Ser-Hyp)10, enhanced green fluorescent protein) (ligand)	10	–
B1	–	5
